Source: the nanobody polyreactivity screen of Harvey et al. (2022)

Assay: yeast display, Sf9 membrane polyspecificity reagent, FACS + sequencing; frameworks hold sequencing errors
Outline: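 Genes from sorted yeast were amplified by colony PCR, read by MiSeq 2 × 250 sequencing and filtered on CDR length. These cells carried a synthetic nanobody library in Saccharomyces cerevisiae BJ5465 and were sorted by FACS into low and high (top ~1%) gates on anti-HA and streptavidin fluorescence. Polyreactivity is labelled according to the gate of origin.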

Sequence | polyreactivity (PSR sort gate)
QVQLVESGGGLVQAGGSLRLSCAASGIFVDNAMGWYRQAPGKERELVAAITSSTDSTYYADSVKGRFTISRDNAKNTVYLQMNSLKPEDTAVYYCAVARPGGFYFLVHYGYGYWGQGPQVTVSS | low polyreactivity
QVHLVESGGRLVQAGGSLRLSCAESGFTFGSNVKGAYRQAPGKEREFVDAITSSGRTKYADSVKGRFTISRDNAKNTVYLQMNSLKPEDTAVYYCAARPSQWNYDYRRVYYWVQGTQVTVSS | high polyreactivity
QVQLVESGGGIVQAGGSLLLSCAASGSISFLYTMGWYRQAPGKERELVAAITGSTASTYYADSVKGRFTISRDNAKNTVYLQMNSLKPEDTAVYYCAAYWYAEGYWVSRDYWGQGTQVTVSS | low polyreactivity
QVQLVESGGGLVQAGGSLRLSCAASGSTFYFNAMGWYIQAPGKERELVADINYSGTSTYYADSVKGRFTISRDNAKNTVYLQMNSLKPEDTAVYYCAKSLPSSNTSTSYDYWGQGTQVTVSS | low polyreactivity
QVQLVESGGGLVQAGGSLRLTCAASGSTFEVYAMGWYRQAPGKEREFVAAITVDGGSTYYADSVKGRFTISRDNAKNTVYLQMNSLKPEDTAVYYCAADSGSWEYYYWGQGTQVTVSS | low polyreactivity
QVQLVESGGGLVQAGGSLRLSCAASGRIFADNAMGWYRQAPGKERELVADITYSGGSTYYADSVKGRFTISRDSAKNTVYLQMNSLKPEDTAVYYCAKQGVDYWGQGTQVTVSS | low polyreactivity
QVQLVESGGGLVQAGGSLRLSCAASGIIFNYYAMGWYRQAPGKERELVAAISASGGSTYYADSVKGRFTISRDNAKNTVYLQMNSLKPEDTAVYYCNAAVLYRQYGRGDYWGQGTQVTVSS | low polyreactivity
QVQLVESGVGLVHAGGSLRLSCAASGFTFKENAMGWYRQAPGKERELVAAISSTGGSTYYADSVKGRFTISRDIAKNTVYLQINRLKPEDTAVYYCAASTYWYDGDYWGQGTQVTVSS | high polyreactivity
QVQLVESGGGLVQAGGSLRLSCAASGRIFSYYAMGWYRQAPRKERELVAAITWSGGSTYYADSVKGRFTISRDNAKNTVYLQMNSLKPEDTAVYYCAADRRRWLYYGYDYWGQGTQVTVSS | high polyreactivity
QVQLVESGGGLVQAGGSLRLSCAASGSIYNKNAMGWNRQAPGKERELVAAINQSGGGTYYADSVKGRFTISRDNAKNTVYLQMNSLKPEDTAVYYCAAQVWAGIRYYHMYYWGQGTQVTVSS | low polyreactivity
QVQLVESGGGLVQAGGSLRLSCAASGYTFSHYAMGWYRQAPGKERELVAGITWSGGSTYYADSVKGRFTISRENSKNTVYLQMNSLKPEDTSVYYCAAKYYWYYSYSGIPLFDYWGQGTQVTVSS | low polyreactivity
QVQLVESGGGLVQAGGSLRLSCAASGRILHHYAMGWYIQAHGKERELVAAIRWGGGSTYYADSVKGRFTISRDNAKNTVYLQMNSLKPEDTAVYYCAAEVVAGYDYSQYYYWGQCTQVTVSS | low polyreactivity
QVQLVESGGGLVQAGGSLRLSCAASGSTFLDYTMGWYRHAPGKERELVAVIYYRAGSTYYADSVKGRFTISRDNAKNTVYLQMNSLKPEDTAVYYCNADYYNFWRRRRYLWYESWGQGTQVTVSS | low polyreactivity
QVQLVESAGGLVQAGGSLRLSCGASGRIYSLYAMGWYRQAPGKERELVAAISWGAGSTYYADSVKGRFTISRDNAKNTVYLQMNSLKREDTAVYYCATGRRYYYPYSSYLKYGYWGQGTQVTVSS | high polyreactivity
QVQLVESGGGLVQAGGSLRLSCAASGIIFVRNARGWSRQAPGKERELVAAITGRGVSTYYADSVKGRFTISRDNAKNTVYLQMNSLNQEDTAVYYGAARYSSRGTYPRRYDYWGQGTQVTVSS | high polyreactivity
QVHLVDSGGGLVQAGGSLRLSCAASGSTFDYNAMGWYRQAPGQESELVAAISWRGGGTYYADSVKGRFTISRDNAKTTVYLQMNSLKPEDTAVYYCAASAYKGTGAEFDYWRQGTQVTVSS | low polyreactivity
QVQLVESGGGLVQAGGSLRLSCAASGFTFYRYAMGWYRQAPGKERELVAAITSGGSTNYADSVKGRFTISRDNANNTVYLQMNSLKPEDTAVYYCNAGRYVRWWWYSPDDYWGQGTQVTVSS | high polyreactivity
QVQLVDSGGGLVQAGGSLRLSCAASGSIFWDYAMGWYRQAPGIERELVASIPSGGSTYYADSVKGRFTISRDNAKKTVYLQMNRLKPEDTAVYYCAADGHTRHWGQTGRGAMYYWGQGTQVTVSS | low polyreactivity
QVQLVESVGGLVQAGGSLRLSCAASGSISGYYAMGWYRQAPGKERELVASIRYTGARTYYADSVKGRFTISRDNAKNTVYLQMHSLKPEDTAVYYCAADVNRDRVWGGDYWGQGTQVTVSS | low polyreactivity
QVQLVESGGGLVQAGGSLRLSCAASGIIFWYNARGWYRQAPGKERELVASISTGGRTYYADSVKGRFTISRDNAKNTVYLQMNSLKPEDTAVYYCAAASRVGFLYYYWGQGTQVTVSS | low polyreactivity
QVQLVESGGGLVQAGGSLRLSCAASGSTFTYYTMGWYRQAPGKERELVAAITSGTSTNYADSVKGRFTISRDNAKNTVYLQMNSLTPEDTAVYYEYDYWGQGTQVTVSS | low polyreactivity
QVQLVESGGGLVQAGGSLRLSCAASGIIFFSNTMVGYRQAPGKDREFVAAITWSTGNTYYADSVKGRFTISRDNAKNTVYLQMNSLKTEDTAVYYCYAEYLVITLYGGVEFDYWGQGTQVTVSS | low polyreactivity

Sequence | polyreactivity (PSR sort gate)
QVQLVESGGGLVQAGGSLRLSCAASGSTFAYNAMGWYRQAPGKERELVAAIRISGGTTYYADSVKGRFTISRDNAKNTVYLQMNSLKREDTAVYYCAAGTAGTTGSPKFSGYGYDYWGQGTQVTVSS | low polyreactivity
QVQLVESGGGLVQAGGSLRLSCAASGNIFVEYAMGWYRPAPGKERELVAAITNSGGRTHYSDSVKGRFTISRDNAKNTVYLQMNSLKPEDSEVYFCAAPTKYRSRRYYWGQGTQVTVSS | high polyreactivity
QVQLVESGGGLVQAGGSLRLSCAASGFTFKLYAMGWYRQAPGKERELVAVITTSGGRTYYADSVKGRFTISRDNANNTVYLQMTSLKPEDTAVYYCAKVVFVRVAPGYYWGQGTQVTVSS | high polyreactivity
QVQLVESGGGLVQAGGSLRLSCAACGSTFWYYAMGWYRQAPGKEREFVAAISKSGDSTNYADSVKGRFTISRDNAKNTVYLQMNSLKPEDTAVYYCAATRSSGRFRYYYWGQGTQVTVSS | high polyreactivity
QVQLVESGGGLVQAGGSLRLSCAASGITFRVYAMGWYRQAPGKERELVADISGTGGSTYYADSVKGRFTISRDYAKNTVYLQMNSLKPEDTAVYYCAAVYGFYYSFLQDSYGYWGQGTQVTVSS | low polyreactivity
QVQLVESGGGLVQAGGSLRLSCAASGINISWYAMGLYRQAPGKERELVAAISRRGGRTYYADSVKGRFTSSRDNAKNTVYLEMKSMLPEDTAVYYCAVVERQVPGPADGSVQVYYYWGQGTQVTGSS | high polyreactivity
QVQLVESGGGLVQAGGSLRLSCAASGSTFKQYAMGWYSQAPGKERELVAAISLSGSRTYYADSVKVRFTISRDNAKNTVYLQMKSLIPVDTAVYYCAAELRSSAGWLYDYWGQGTQVTVSS | high polyreactivity
QVQLVESVGGIVQAGGSLRLSCAASGITLYWYAMGWYRQAPGKERELVAAISRRGGTTYYADSVKGRFTISRDNAKINVFLQMHSLNPEDTAVYYCAKAPDTQTSWSRQEGTYWGQGTQVTVSS | low polyreactivity
QVQLVESGGGLVQAGGSLRLSCAASGFTFHTYAMGWYRQAPGKERELVAAIDSSGGITYYADSVKGRFTISRDNAKNTVYLQMKSLKPEDTAVYYCAAVFLLFGFEWSYDYWGQGTQVTVSS | low polyreactivity
QVQLVESGGGLVQAGGSLRLSCAASGSIFAKNAMGWYRQAPGKERELVAGIDFSGGSTYYADSVKGRFTISRDNAKNTVYLQMNSLKPEDTAVDYCAADWAYKYELDYWGQGTQVTVSS | low polyreactivity
QVQLVESGGCLVQAGGSLRLSCAGSGSIFDGYAMGWYRQAPGKERELVADINNGADTYYADSVKGRFTISRDKAKNTVYLQMNTLKTEDTAVYYCAARYGTDTDIQNVARYDYWGQGTQVTVSS | low polyreactivity
QVQLVESGGGLVQAGGSLRLSCASSGSIFQYNAMGWYRQAPGKERELVAAINGGGSTYYADSVRGRFTISRDNAKNTVYLQMNSLKPEDTAVYYCAARHGESHYDYWGQGTQVTVSS | low polyreactivity
QFQLVESGGGLVQAGGSLRLSCAASGCIFLYYAMGSYRPATGNERELVASISSGGSTNYADSVKGRFTISRDNAKNTVYLQMNSLKPEDTAVYYCAARPYGGGRRSIYYYWGQGTQVTESS | high polyreactivity
QVQLVESGGGLVQAGGSLRISCAASGSTFFYYSMGWYRQAPGKEWEFVAHITSSDASTHYADSVKGRFTISRDNAKNTVNLQMNSQQPEDTAVYYCAADRYCGQANYYWGQGTQVTVSS | low polyreactivity
QVQLVESGGGLVQAGGCLRLSCAASGSTFRGNAMGWYRQAPGKERELVAAITYSGGSTDYADSVKGRFTISRDNAKNTVYLQMNSLKPDDTAVYYCAARWYYYPLLYDYWGQGTQVTVSS | low polyreactivity
QVQLVESGGGLVQAGGSLRLSCAASGRTFYSYARGWYRQAPGKEREFFAAISRSGGSTYYADSVKGRFTISRDYAKNTVYLQMNSLKPEDTAVYYCAARYRRDDYDYWGQGTQVTVSS | high polyreactivity
QVQLVESGGGLVQAGGSLRLSCAASGSTFQWNALGWYRQAPGKERELVASITDSGGRTNYADSVKGRFTISRDNAKNTVYLQMNSLKPEDTAVYYCNAAGYRRSTWWYDYWGQGSQVTVSS | high polyreactivity
QVQLVESGGDLVQAGASLRLSCASSGRTFRHNALGRYRQAPGKERYLVATISNRGGTTYYADSVKGRFTISRDNAKNTVYLQMNSLKPEDTAVYYCAARVGVLGYVRYGYWGQGTQVTVSS | low polyreactivity
QVQLVESGGGLVQAGGSLRLSCAASGSIFQYNTMGWYRQAPGKERELVAAINWSGVSTYYADSVKGRFTISRDNAKNTVYLQMNSLKPEDTAVYYCNARRYVAGSYIYERGYWGQGTQVTVSS | high polyreactivity
QFQLGESGGGLVQAGGSLRLSCAACGSTFYLYAMGWYRQAPGKDRELVAAISKSCGSTYYADSVKGRFTISRDNAKNTVYLQMNSLKPEVTAVYYCATRWIKGRKMDYWGQGTQVTVSS | high polyreactivity
QVQLVESGGGLVQAGGSLRLSCAASGSTLSNNAMGWYRQAPGKERELVAAINDSAGSTYYADSVKGRFTISRDNAKNTVYLQMNSLKPEDTAVYYCAAKNYGRSFYYGYDYWEQGTQVTVSS | low polyreactivity
